Reference: patent US20250043028A1 (Hoffmann-La Roche, published 2025)

T1: muFcγRIV-aviHis-biotin (murine, UniProt A0A0B4J1G0 21-203, Biotin on the lysine of the Avi tag (tag left out of the letters); C-terminal His tag used for capture by the anti-Penta His antibody)
T1 construct: Captured on an anti-Penta His antibody on a CM5 chip; also called murine FcγRIV; not shown: Avi-His tag (and any linker to it)
T1 sequence: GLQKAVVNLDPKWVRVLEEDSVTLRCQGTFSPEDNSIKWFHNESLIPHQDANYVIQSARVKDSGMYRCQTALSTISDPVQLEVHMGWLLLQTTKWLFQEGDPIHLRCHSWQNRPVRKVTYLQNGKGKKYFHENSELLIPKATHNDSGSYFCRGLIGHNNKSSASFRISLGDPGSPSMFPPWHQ

T2: human CEA expressed on tumor cells (LS-174T, MKN-45, MC38-huCEA) (human, UniProt P06731 35-685)
T2 sequence (looked up): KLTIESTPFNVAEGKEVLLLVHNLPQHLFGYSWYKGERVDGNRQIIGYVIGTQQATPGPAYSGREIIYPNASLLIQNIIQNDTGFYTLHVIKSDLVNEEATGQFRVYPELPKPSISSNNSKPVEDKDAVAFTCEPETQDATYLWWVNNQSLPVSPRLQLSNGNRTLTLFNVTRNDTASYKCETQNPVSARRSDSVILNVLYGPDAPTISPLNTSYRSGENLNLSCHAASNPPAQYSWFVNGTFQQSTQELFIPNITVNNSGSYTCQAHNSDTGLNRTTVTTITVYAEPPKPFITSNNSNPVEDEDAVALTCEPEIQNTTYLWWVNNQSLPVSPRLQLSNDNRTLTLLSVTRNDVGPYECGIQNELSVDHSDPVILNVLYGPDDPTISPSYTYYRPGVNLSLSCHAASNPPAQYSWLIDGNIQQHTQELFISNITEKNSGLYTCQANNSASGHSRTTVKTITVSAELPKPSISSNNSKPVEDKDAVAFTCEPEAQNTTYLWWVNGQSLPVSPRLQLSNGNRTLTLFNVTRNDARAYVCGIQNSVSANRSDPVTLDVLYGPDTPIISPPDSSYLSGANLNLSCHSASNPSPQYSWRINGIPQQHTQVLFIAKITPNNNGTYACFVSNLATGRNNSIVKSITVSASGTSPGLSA

B1: “2+1 IgG scFab, wt” (anti-MCSP/anti-huCD3) (bispecific antibody)
chain 1: DIVLTQSPSSLSASLGDRVTISCSASQGIRNYLNWYQQRPDGTVKLLIYYTSSLHSGVPSRFSGSGSGTDYSLTISNLEPEDIATYYCQQYSKLPWTFGGGTKLEIKRTVAAPSVFIFPPSDEQLKSGTASVVCLLNNFYPREAKVQWKVDNALQSGNSQESVTEQDSKDSTYSLSSTLTLSKADYEKHKVYACEVTHQGLSSPVTKSFNRGEC
chain 2: not shown
chain 3: not shown
notes: Wild-type Fc domain; vectors transfected 1:2:1 (heavy chain : light chain : heavy chain-scFab); also called Fc-wt; copies: 2 + 1 + 1
B2: “2+1 IgG Crossfab, inverted”; CL/CH1 exchange (CH1A1A/V9) (anti-CEA/anti-huCD3) (bispecific antibody)
chain 1: QVQLVQSGAEVKKPGASVKVSCKASGYTFTEFGMNWVRQAPGQGLEWMGWINTKTGEATYVEEFKGRVTFTTDTSTSTAYMELRSLRSDDTAVYYCARWDFAYYVEAMDYWGQGTTVTVSSASTKGPSVFPLAPSSKSTSGGTAALGCLVKDYFPEPVTVSWNSGALTSGVHTFPAVLQSSGLYSLSSVVTVPSSSLGTQTYICNVNHKPSNTKVDKKVEPKSCDKTHTCPPCPAPEAAGGPSVFLFPPKPKDTLMISRTPEVTCVVVDVSHEDPEVKFNWYVDGVEVHNAKTKPREEQYNSTYRVVSVLTVLHQDWLNGKEYKCKVSNKALGAPIEKTISKAKGQPREPQVCTLPPSRDELTKNQVSLSCAVKGFYPSDIAVEWESNGQPENNYKTTPPVLDSDGSFFLVSKLTVDKSRWQQGNVFSCSVMHEALHNHYTQKSLSLSPGK
chain 2: DIQMTQSPSSLSASVGDRVTITCKASAAVGTYVAWYQQKPGKAPKLLIYSASYRKRGVPSRFSGSGSGTDFTLTISSLQPEDFATYYCHQYYTYPLFTFGQGTKLEIKRTVAAPSVFIFPPSDEQLKSGTASVVCLLNNFYPREAKVQWKVDNALQSGNSQESVTEQDSKDSTYSLSSTLTLSKADYEKHKVYACEVTHQGLSSPVTKSFNRGEC
chain 3: DIQMTQSPSSLSASVGDRVTITCRASQDIRNYLNWYQQKPGKAPKLLIYYTSRLESGVPSRFSGSGSGTDYTLTISSLQPEDFATYYCQQGNTLPWTFGQGTKVEIKSSASTKGPSVFPLAPSSKSTSGGTAALGCLVKDYFPEPVTVSWNSGALTSGVHTFPAVLQSSGLYSLSSVVTVPSSSLGTQTYICNVNHKPSNTKVDKKVEPKSC
chain 4: not shown
notes: also called CL/CH1-exchange construct
B3: “2+1 IgG Crossfab, inverted”; VL/VH exchange (CH1A1A/V9) (anti-CEA/anti-huCD3) (bispecific antibody)
chain 1: EVQLVESGGGLVQPGGSLRLSCAASGYSFTGYTMNWVRQAPGKGLEWVALINPYKGVSTYNQKFKDRFTISVDKSKNTAYLQMNSLRAEDTAVYYCARSGYYGDSDWYFDVWGQGTLVTVSSASVAAPSVFIFPPSDEQLKSGTASVVCLLNNFYPREAKVQWKVDNALQSGNSQESVTEQDSKDSTYSLSSTLTLSKADYEKHKVYACEVTHQGLSSPVTKSFNRGEC
chain 2: not shown
chain 3: B2 chain 1
chain 4: B2 chain 2
notes: also called VL/VH-exchange construct

Key:
[1] = biological target: T3, HuFcγRIIIa-V158-K6H6 (human, UniProt P08637 17-208); experiment: SPR Biacore T100, 25 °C, kinetic fit (value in brackets, not explained); receptor captured via anti-Penta His
T3 construct: Captured on an anti-Penta His antibody on a CM5 chip; also called human FcγRIIIa-V158; human FcγRIIIa; not shown: K6H6 tag
T3 sequence (P08637 17-208 F176V): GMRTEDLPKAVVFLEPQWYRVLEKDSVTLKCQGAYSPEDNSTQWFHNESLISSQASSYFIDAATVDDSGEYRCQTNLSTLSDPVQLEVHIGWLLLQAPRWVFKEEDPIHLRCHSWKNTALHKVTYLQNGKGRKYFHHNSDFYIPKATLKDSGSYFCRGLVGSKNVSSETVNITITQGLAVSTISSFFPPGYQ
Description: (§1) For analyzing interaction of different Fc-variants with human FcγRIIIa-V158 and murine FcγRIV direct coupling of around 6,500 resonance units (RU) of the anti-Penta His antibody (Qiagen) is performed on a CM5 chip at pH 5.0 using the standard amine coupling kit (Biacore, Freiburg/Germany). HuFcγRIIIa-V158-K6H6 and muFcγRIV-aviHis-biotin are captured for 60 s at 4 and 10 nM respectively.
(§2) Constructs with different Fc-mutations are passed through the flow cells for 120 s at a concentration of 1000 nM with a flow rate of 30 μl/min. The dissociation is monitored for 220 s. Bulk refractive index differences are corrected for by subtracting the response obtained in a reference flow cell. Here, the Fc-variants are flown over a surface with immobilized anti-Penta His antibody but on which HBS-EP has been injected rather than HuFcγRIIIa-V158-K6H6 or muFcγRIV-aviHis-biotin. Affinity for human FcγRIIIa-V158 and murine FcγRIV was determined for wild-type Fc using a concentration range from 500-4000 nM.
(§3) The steady state response was used to derive the dissociation constant KD by non-linear curve fitting of the Langmuir binding isotherm. Kinetic constants were derived using the Biacore T100 Evaluation Software (vAA, Biacore AB, Uppsala/Sweden), to fit rate equations for 1:1 Langmuir binding by numerical integration.

[2] = biological target: T1, muFcγRIV-aviHis-biotin; experiment: SPR Biacore T100, 25 °C, kinetic fit; receptor captured via anti-Penta His
Description: as §1, §2, §3

[3] = biological target: T3, HuFcγRIIIa-V158-K6H6; experiment: SPR Biacore T100, 25 °C, kinetic fit, one concentration (1000 nM); receptor captured via anti-Penta His
Description: as §1, §2, §3

[4] = biological target: T3, HuFcγRIIIa-V158-K6H6; experiment: SPR Biacore T100, 25 °C, steady state; receptor captured via anti-Penta His, construct 500-4000 nM
Description: as §1, §2, §3

[5] = biological target: T1, muFcγRIV-aviHis-biotin; experiment: as above
Description: as §1, §2, §3

[6] = biological target: T4, human CD3 expressed on Jurkat cells (human, UniProt P07766 23-207); experiment: flow cytometry on Jurkat cells; CL/CH1 exchange; CD3 on Jurkat cells
T4 construct: CD3 as part of the T cell receptor complex on Jurkat cells; also called huCD3; human CD3 on cells
T4 sequence (P07766 23-207 limits assumed): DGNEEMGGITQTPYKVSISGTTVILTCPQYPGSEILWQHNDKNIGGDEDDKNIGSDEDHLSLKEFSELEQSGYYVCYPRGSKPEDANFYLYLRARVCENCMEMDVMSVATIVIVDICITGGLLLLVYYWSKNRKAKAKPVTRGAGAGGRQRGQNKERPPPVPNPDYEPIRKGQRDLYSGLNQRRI
Description: (§4) Binding of the different bispecific constructs to CD3 on Jurkat cells (ATCC #TIB-152), and the respective tumor antigen on target cells, was determined by FACS. Briefly, cells were harvested, counted and checked for viability. 0.15-0.2 million cells per well (in PBS containing 0.1% BSA; 90 μl) were plated in a round-bottom 96-well plate and incubated with the indicated concentration of the bispecific constructs and corresponding IgG controls (10 μl) for 30 min at 4° C. For a better comparison, all constructs and IgG controls were normalized to same molarity. […] Bound constructs were detected using a FACSCantoII (Software FACS Diva). The “(scFv)₂” molecule was detected using a FITC-conjugated anti-His antibody (Lucerna, #RHIS-45F-Z). […] Unless otherwise indicated, cells were fixed with 100 μl/well fixation buffer (BD #554655) for 15 min at 4° C. in the dark, centrifuged for 6 min at 400×g and kept in 200 μl/well PBS containing 0.1% BSA until the samples were measured with FACS CantoII. EC50 values were calculated using the GraphPad Prism software.
(§5) As a control, the equivalent maximum concentration of the corresponding IgGs and the background staining due to the labeled 2ndary antibody (goat anti-human FITC-conjugated AffiniPure F(ab′)₂ Fragment, Fcγ Fragment-specific, Jackson Immuno Research Lab #109-096-098) were assessed as well.

[7] = biological target: T2, human CEA expressed on tumor cells …; experiment: cell-based or functional assay
[8] = biological target: T2, human CEA expressed on tumor cells …; experiment: flow cytometry on LS-174T cells; CL/CH1 exchange; CEA on LS-174T cells
Description: as §4, §5

[9] = biological target: T2, human CEA expressed on tumor cells …; experiment: flow cytometry on LS-174T cells; VL/VH exchange; CEA on LS-174T cells
Description: as §4, §5

[10] = biological target: T4, human CD3 expressed on Jurkat cells; experiment: flow cytometry on Jurkat cells; VL/VH exchange; CD3 on Jurkat cells
Description: as §4, §5

| Binder | Kd [1] [nM] | Kd [2] [nM] | Kd [3] [nM] | Kd [4] [nM] | Kd [5] [nM] | EC50 [6] [nM] | EC50 of killing (LDH release) of LS-174T cells, human PBMCs, E:T 10:1, 28 h [7] [nM] | EC50 of killing (LDH release) of MKN-45 cells, human PBMCs, E:T 10:1, 28 h [7] [nM] | EC50 [8] [nM] | EC50 [9] [nM] | EC50 [10] [nM] |
| --- | --- | --- | --- | --- | --- | --- | --- | --- | --- | --- | --- |
| B1 | 1200 | 576 | 600 | 3470 | 1500 |  |  |  |  |  |  |
| B2 |  |  |  |  |  | 3.9 | 0.673 | 0.115 | 6.7 |  |  |
| B3 |  |  |  |  |  |  | 0.955 | 0.243 |  | 9.3 | 4.6 |
